This is an account of results in publication PMC12416549 (2024).

T1: TNFR1 (Homo sapiens, UniProt P19438)
T1 chain: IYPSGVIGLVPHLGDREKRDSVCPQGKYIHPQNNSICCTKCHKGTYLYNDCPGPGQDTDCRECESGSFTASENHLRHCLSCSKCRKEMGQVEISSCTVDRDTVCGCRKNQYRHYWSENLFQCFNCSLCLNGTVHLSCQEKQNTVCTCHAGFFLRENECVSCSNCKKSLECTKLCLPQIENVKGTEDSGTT

B1: V57F (designed binder)
chain: MTLQELLREEALRRAEAEAFRYALELLAEKFPEQKEYLLDLAEEIESQIRSLSGVDFEDVRKFLDKEWAWVKELLAEHPAELAEVEAARAARLAELRAEVEAKVAA
B2: E67T (designed binder)
chain: MTLQELLREEALRRAEAEAFRYALELLAEKFPEQKEYLLDLAEEIESQIRSLSGVDVEDVRKFLDKTWAWVKELLAEHPAELAEVEAARAARLAELRAEVEAKVAA
B3: P32M (designed binder)
chain: MTLQELLREEALRRAEAEAFRYALELLAEKFMEQKEYLLDLAEEIESQIRSLSGVDVEDVRKFLDKEWAWVKELLAEHPAELAEVEAARAARLAELRAEVEAKVAA
B4: K66I (designed binder)
chain: MTLQELLREEALRRAEAEAFRYALELLAEKFPEQKEYLLDLAEEIESQIRSLSGVDVEDVRKFLDIEWAWVKELLAEHPAELAEVEAARAARLAELRAEVEAKVAA
B5: A42I (designed binder)
chain: MTLQELLREEALRRAEAEAFRYALELLAEKFPEQKEYLLDLIEEIESQIRSLSGVDVEDVRKFLDKEWAWVKELLAEHPAELAEVEAARAARLAELRAEVEAKVAA
B6: P79C (designed binder)
chain: MTLQELLREEALRRAEAEAFRYALELLAEKFPEQKEYLLDLAEEIESQIRSLSGVDVEDVRKFLDKEWAWVKELLAEHCAELAEVEAARAARLAELRAEVEAKVAA
B7: E101Y (designed binder)
chain: MTLQELLREEALRRAEAEAFRYALELLAEKFPEQKEYLLDLAEEIESQIRSLSGVDVEDVRKFLDKEWAWVKELLAEHPAELAEVEAARAARLAELRAEVYAKVAA
B8: L52D (designed binder)
chain: MTLQELLREEALRRAEAEAFRYALELLAEKFPEQKEYLLDLAEEIESQIRSDSGVDVEDVRKFLDKEWAWVKELLAEHPAELAEVEAARAARLAELRAEVEAKVAA
B9: F31G (designed binder)
chain: MTLQELLREEALRRAEAEAFRYALELLAEKGPEQKEYLLDLAEEIESQIRSLSGVDVEDVRKFLDKEWAWVKELLAEHPAELAEVEAARAARLAELRAEVEAKVAA
B10: A42P (designed binder)
chain: MTLQELLREEALRRAEAEAFRYALELLAEKFPEQKEYLLDLPEEIESQIRSLSGVDVEDVRKFLDKEWAWVKELLAEHPAELAEVEAARAARLAELRAEVEAKVAA
B11: R97M (designed binder)
chain: MTLQELLREEALRRAEAEAFRYALELLAEKFPEQKEYLLDLAEEIESQIRSLSGVDVEDVRKFLDKEWAWVKELLAEHPAELAEVEAARAARLAELMAEVEAKVAA
B12: E99M (designed binder)
chain: MTLQELLREEALRRAEAEAFRYALELLAEKFPEQKEYLLDLAEEIESQIRSLSGVDVEDVRKFLDKEWAWVKELLAEHPAELAEVEAARAARLAELRAMVEAKVAA
B13: H78A (designed binder)
chain: MTLQELLREEALRRAEAEAFRYALELLAEKFPEQKEYLLDLAEEIESQIRSLSGVDVEDVRKFLDKEWAWVKELLAEAPAELAEVEAARAARLAELRAEVEAKVAA
B14: R14N (designed binder)
chain: MTLQELLREEALRNAEAEAFRYALELLAEKFPEQKEYLLDLAEEIESQIRSLSGVDVEDVRKFLDKEWAWVKELLAEHPAELAEVEAARAARLAELRAEVEAKVAA
B15: R13Y (designed binder)
chain: MTLQELLREEALYRAEAEAFRYALELLAEKFPEQKEYLLDLAEEIESQIRSLSGVDVEDVRKFLDKEWAWVKELLAEHPAELAEVEAARAARLAELRAEVEAKVAA
B16: E73I (designed binder)
chain: MTLQELLREEALRRAEAEAFRYALELLAEKFPEQKEYLLDLAEEIESQIRSLSGVDVEDVRKFLDKEWAWVKILLAEHPAELAEVEAARAARLAELRAEVEAKVAA
B17: F63Y (designed binder)
chain: MTLQELLREEALRRAEAEAFRYALELLAEKFPEQKEYLLDLAEEIESQIRSLSGVDVEDVRKYLDKEWAWVKELLAEHPAELAEVEAARAARLAELRAEVEAKVAA
B18: E99Q (designed binder)
chain: MTLQELLREEALRRAEAEAFRYALELLAEKFPEQKEYLLDLAEEIESQIRSLSGVDVEDVRKFLDKEWAWVKELLAEHPAELAEVEAARAARLAELRAQVEAKVAA
B19: E44S (designed binder)
chain: MTLQELLREEALRRAEAEAFRYALELLAEKFPEQKEYLLDLAESIESQIRSLSGVDVEDVRKFLDKEWAWVKELLAEHPAELAEVEAARAARLAELRAEVEAKVAA
B20: D59R (designed binder)
chain: MTLQELLREEALRRAEAEAFRYALELLAEKFPEQKEYLLDLAEEIESQIRSLSGVDVERVRKFLDKEWAWVKELLAEHPAELAEVEAARAARLAELRAEVEAKVAA
B21: R21S (designed binder)
chain: MTLQELLREEALRRAEAEAFSYALELLAEKFPEQKEYLLDLAEEIESQIRSLSGVDVEDVRKFLDKEWAWVKELLAEHPAELAEVEAARAARLAELRAEVEAKVAA
B22: K62S (designed binder)
chain: MTLQELLREEALRRAEAEAFRYALELLAEKFPEQKEYLLDLAEEIESQIRSLSGVDVEDVRSFLDKEWAWVKELLAEHPAELAEVEAARAARLAELRAEVEAKVAA
B23: W68F (designed binder)
chain: MTLQELLREEALRRAEAEAFRYALELLAEKFPEQKEYLLDLAEEIESQIRSLSGVDVEDVRKFLDKEFAWVKELLAEHPAELAEVEAARAARLAELRAEVEAKVAA
B24: A17W (designed binder)
chain: MTLQELLREEALRRAEWEAFRYALELLAEKFPEQKEYLLDLAEEIESQIRSLSGVDVEDVRKFLDKEWAWVKELLAEHPAELAEVEAARAARLAELRAEVEAKVAA
B25: L24I (designed binder)
chain: MTLQELLREEALRRAEAEAFRYAIELLAEKFPEQKEYLLDLAEEIESQIRSLSGVDVEDVRKFLDKEWAWVKELLAEHPAELAEVEAARAARLAELRAEVEAKVAA
B26: A69N (designed binder)
chain: MTLQELLREEALRRAEAEAFRYALELLAEKFPEQKEYLLDLAEEIESQIRSLSGVDVEDVRKFLDKEWNWVKELLAEHPAELAEVEAARAARLAELRAEVEAKVAA
B27: M1F (designed binder)
chain: FTLQELLREEALRRAEAEAFRYALELLAEKFPEQKEYLLDLAEEIESQIRSLSGVDVEDVRKFLDKEWAWVKELLAEHPAELAEVEAARAARLAELRAEVEAKVAA
B28: R97D (designed binder)
chain: MTLQELLREEALRRAEAEAFRYALELLAEKFPEQKEYLLDLAEEIESQIRSLSGVDVEDVRKFLDKEWAWVKELLAEHPAELAEVEAARAARLAELDAEVEAKVAA
B29: E67N (designed binder)
chain: MTLQELLREEALRRAEAEAFRYALELLAEKFPEQKEYLLDLAEEIESQIRSLSGVDVEDVRKFLDKNWAWVKELLAEHPAELAEVEAARAARLAELRAEVEAKVAA
B30: L39M (designed binder)
chain: MTLQELLREEALRRAEAEAFRYALELLAEKFPEQKEYLMDLAEEIESQIRSLSGVDVEDVRKFLDKEWAWVKELLAEHPAELAEVEAARAARLAELRAEVEAKVAA
B31: L82Y (designed binder)
chain: MTLQELLREEALRRAEAEAFRYALELLAEKFPEQKEYLLDLAEEIESQIRSLSGVDVEDVRKFLDKEWAWVKELLAEHPAEYAEVEAARAARLAELRAEVEAKVAA
B32: A105I (designed binder)
chain: MTLQELLREEALRRAEAEAFRYALELLAEKFPEQKEYLLDLAEEIESQIRSLSGVDVEDVRKFLDKEWAWVKELLAEHPAELAEVEAARAARLAELRAEVEAKVIA
B33: L74T (designed binder)
chain: MTLQELLREEALRRAEAEAFRYALELLAEKFPEQKEYLLDLAEEIESQIRSLSGVDVEDVRKFLDKEWAWVKETLAEHPAELAEVEAARAARLAELRAEVEAKVAA
B34: A88Q (designed binder)
chain: MTLQELLREEALRRAEAEAFRYALELLAEKFPEQKEYLLDLAEEIESQIRSLSGVDVEDVRKFLDKEWAWVKELLAEHPAELAEVEAQRAARLAELRAEVEAKVAA

In the assay the target is T1, TNFR1. The assay can be described thus: yeast display SC50.
For the molecule B1, the “apparent Kd (screen)” value stood at 718 pM.
To B2 belongs 1860 pM; to B3, 1400 pM; to B4, 869 pM.
In the case of B5 it was 593 pM; in that of B6, 718 pM.
In the case of B7 it was 446 pM; in that of B8, 24400 pM; in that of B9, 869 pM.
Turning to B10, the “apparent Kd (screen)” value worked out at 490 pM.
To B11 belongs 539 pM; to B12, 956 pM; to B13, 539 pM.
In the case of B14, the “apparent Kd (screen)” value is 593 pM.
Consider B15, for which the “apparent Kd (screen)” value is 335 pM.
To B16 belongs 718 pM; to B17, 12500 pM.
In the case of B18 it was 539 pM.
To B19 belongs 13800 pM; to B20, 539 pM; to B21, 539 pM.
Turning to B22, the “apparent Kd (screen)” value worked out at 539 pM.
B23: the “apparent Kd (screen)” value was determined as 539 pM.
Turning to B24, the “apparent Kd (screen)” value amounted to 539 pM.
In the case of B25 it was 653 pM; in that of B26, 653 pM.
In the case of B27 it was 593 pM; in that of B28, 593 pM.
To B29 belongs 1400 pM; to B30, 1400 pM; to B31, 718 pM.
As to B32, the “apparent Kd (screen)” value came to 869 pM.
In the case of B33 it was 2480 pM; in that of B34, 490 pM.
